Consider four substances from patent US9708382B2, “Peptide library” (Daiichi Sankyo Company, Limited, priority 2011, dated 2017).

Test [1] concerns the target T1, Recombinant Mouse EphA2/Fc Chimera (mEphA2/Fc) (Mus musculus, UniProt Q03145).
T1 construct: purchased R&D systems, Inc
Nature of the test: Phage ELISA on solid-phase immobilized mEphA2/Fc. Type of test: binding. Conditions: phage-displayed peptide, compared with wild-type TACI_d2. As to the method:
(§1) As to 3 clones (α-EphA2 #1 to #3: corresponding to SEQ ID NOs: 3 to 5, respectively, in the Sequence Listing and to Nos. 2 to 4, respectively in FIG. 4) selected from the Escherichia coli colonies after the final round of panning with hEphA2 as a target molecule, an Escherichia coli suspension with OD600 nm=0.3 was prepared using 2×YT/Amp/1% Glu. The Escherichia coli cells of each clone were shake-cultured at 37° C. and allowed to grow until OD600 nm=0.5. A sufficient amount of helper phages M13K07 was added thereto to infect the cells at 37° C. for 30 minutes. After addition of 2×YT/Amp/Kan/0.25 mM IPTG, the helper phage-infected Escherichia coli was shake-cultured overnight at 22° C. 20% PEG/2.5 M NaCl solution was added to the recovered culture supernatant to precipitate phages. The precipitated phages were suspended in PBS. This phage stock solution and a series of two-fold dilutions with PBS were used in phage ELISA. An Escherichia coli TG-1 strain having a pCANTAB 5E vector containing the wild-type TACI_d2 gene was also subjected to the same operation as above to prepare phages.
Each of hEphA2, BSA, Recombinant Human BAFF/BLyS/TNFSF13B (R&D systems, Inc.; a polypeptide consisting of amino acids from Ala at position 134 to Leu at position 285 in human BAFF (UniProtKB/Swiss-Prot Accession # Q9Y275) and containing an N-terminally linked histidine tag, etc.; hereinafter referred to as “hBAFF”), and Recombinant Mouse EphA2/Fc Chimera, CF (R&D systems, Inc.; a polypeptide consisting of amino acids from Ala at position 22 to Ala at position 535 in mouse EphA2 (NCBI Accession No. #AAA82113) and containing a C-terminally linked Fc region (from Pro at position 100 to Lys at position 330) of human immunoglobulin G1 (hereinafter, referred to as “hIgG1”); hereinafter, referred to as “mEphA2/Fc”) was added to a Maxisorp plate and solid-phase immobilized overnight at 4° C. […] After washing of the Maxisorp plate with TBST again, the amount of a phage bound with the protein solid-phase immobilized on the plate was detected as absorbance at a wavelength of 405 nm using ELISA POD.
(In general: In an ELISA, binding on a coated surface is turned into a signal by an enzyme label.)

In test [2] the target is T2, human EphA2 expressed on cell surface (Homo sapiens, UniProt P29317).
T2 construct: expressed in transfected cells; host or cells: HEK293T
The test can be described thus: Flow cytometry binding to human EphA2-expressing HEK293T cells. The format is cell-based. Conditions: phage-displayed peptide, HEK293T cells transfected with human EphA2, human ErbB2-expressing cells as negative control. As for the experimental part: Human embryonic kidney cells (HEK293T cells) were cultured at 37° C. in the presence of 5% CO2 using a Dulbecco's modified eagle's medium (hereinafter, referred to as “DMEM”; manufactured by GIBCO, Life Technologies Corp.) containing 10% fetal bovine serum (FBS) (hereinafter, this medium is referred to as “DMEM-10% FBS”). For use in transfection or flow cytometry, the cells were dissociated from the plate for culture using 0.05% trypsin-EDTA (GIBCO), and the cell suspension was then centrifuged to recover cells, which were then resuspended in DMEM-10% FBS and used.
The HEK293T cells were transfected with a pcDNA-DEST40 Gateway vector (manufactured by Invitrogen Corp.) having an insert of the human EphA2 gene or the human ErbB2 gene as a negative control using Lipofectamine 2000 (manufactured by Invitrogen Corp.) according to the instructions.
The transfected cells were recovered. The recovered cells were suspended in a FACS buffer (PBS containing 5% FBS) and applied to a nylon mesh. The solution was dispensed in an amount of 5×10^5 cells/well to 96 Well Cell Culture Cluster Round Bottom With Lid (manufactured by Costar, Corning Inc.) and centrifuged to remove a supernatant. The phage stock solution prepared in the paragraph 1) of Example 4 was added to the resulting cells at a concentration of 50 μL/well, and the mixture was left standing at 4° C. for 30 minutes. A FACS buffer was added thereto at a concentration of 150 μL/well, and the mixture was centrifuged to remove a supernatant. Again, a FACS buffer was added thereto at a concentration of 200 μL/well, and the mixture was centrifuged to remove a supernatant (hereinafter, cells were washed in the same way as this operation). An Anti-M13 antibody diluted 100-fold was added to the obtained cells at a concentration of 50 μL/well as a primary antibody, and the mixture was left standing at 4° C. for 30 minutes, followed by washing of the cells. Subsequently, FLUORESCEIN-CONJUGATED GOAT IGG FRACTION TO MOUSE IGG (manufactured by Cappel, MP Biomedicals, LLC) diluted 1000-fold was added thereto as a secondary antibody, and the mixture was left standing at 4° C. for 30 minutes, followed by washing of the cells. The obtained cells were suspended in 250 μL of a FACS buffer and subjected to Cytomics FC 500 Flow Cytometry System (manufactured by Beckman Coulter, Inc.). Fluorescently stained cells were detected.
A general note: A flow cytometer gives signals particle by particle.

For test [3], the target named is T3, Recombinant Human BAFF/BLyS/TNFSF13B (hBAFF) (Homo sapiens, UniProt Q9Y275).
T3 construct: amino acids from Ala at position 134 to Leu at position 285 in human BAFF; histidine tag (N); purchased R&D systems, Inc
Nature of the test: Phage ELISA on solid-phase immobilized hBAFF. Type of test: binding. Conditions: phage-displayed peptide, absorbance at 405 nm. As to the method: as §1, with “prepare phages. […]” for “prepare phages.”

The target in test [4] is T4, APRIL (Homo sapiens, UniProt O75888).
T4 sequence (O75888 105-250): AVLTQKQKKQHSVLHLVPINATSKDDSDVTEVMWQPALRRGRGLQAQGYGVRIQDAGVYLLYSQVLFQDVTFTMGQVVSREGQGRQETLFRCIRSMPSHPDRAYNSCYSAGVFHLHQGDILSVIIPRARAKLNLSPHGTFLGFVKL
Conditions: compared with whole extracellular region (TACI_d1d2); cited from earlier work.

Test [5] deals with BAFF (Homo sapiens, UniProt Q9Y275). Conditions: compared with whole extracellular region (TACI_d1d2); cited from earlier work.
Chain of BAFF (Q9Y275 134-285 limits assumed, species assumed): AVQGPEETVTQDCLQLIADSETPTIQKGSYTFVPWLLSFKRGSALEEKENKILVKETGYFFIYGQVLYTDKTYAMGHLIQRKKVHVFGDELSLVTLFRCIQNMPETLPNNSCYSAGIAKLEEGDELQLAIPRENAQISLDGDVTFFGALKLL

T1 sequence (Q03145 22-535, change not shown): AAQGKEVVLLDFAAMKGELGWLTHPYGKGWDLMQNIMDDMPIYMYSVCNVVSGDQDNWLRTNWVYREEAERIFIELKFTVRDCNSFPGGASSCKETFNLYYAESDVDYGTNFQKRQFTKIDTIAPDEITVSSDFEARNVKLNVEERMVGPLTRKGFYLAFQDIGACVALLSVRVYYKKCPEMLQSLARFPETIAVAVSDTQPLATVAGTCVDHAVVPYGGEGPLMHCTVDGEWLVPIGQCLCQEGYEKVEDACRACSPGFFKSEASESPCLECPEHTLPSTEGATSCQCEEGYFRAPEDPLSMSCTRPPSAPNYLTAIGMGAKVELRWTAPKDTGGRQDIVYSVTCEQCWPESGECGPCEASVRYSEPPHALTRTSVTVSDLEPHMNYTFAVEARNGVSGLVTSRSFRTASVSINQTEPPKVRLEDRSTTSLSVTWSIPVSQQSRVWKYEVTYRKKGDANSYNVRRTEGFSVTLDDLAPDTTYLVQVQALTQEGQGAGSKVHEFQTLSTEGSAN
T2 sequence (P29317 24-976): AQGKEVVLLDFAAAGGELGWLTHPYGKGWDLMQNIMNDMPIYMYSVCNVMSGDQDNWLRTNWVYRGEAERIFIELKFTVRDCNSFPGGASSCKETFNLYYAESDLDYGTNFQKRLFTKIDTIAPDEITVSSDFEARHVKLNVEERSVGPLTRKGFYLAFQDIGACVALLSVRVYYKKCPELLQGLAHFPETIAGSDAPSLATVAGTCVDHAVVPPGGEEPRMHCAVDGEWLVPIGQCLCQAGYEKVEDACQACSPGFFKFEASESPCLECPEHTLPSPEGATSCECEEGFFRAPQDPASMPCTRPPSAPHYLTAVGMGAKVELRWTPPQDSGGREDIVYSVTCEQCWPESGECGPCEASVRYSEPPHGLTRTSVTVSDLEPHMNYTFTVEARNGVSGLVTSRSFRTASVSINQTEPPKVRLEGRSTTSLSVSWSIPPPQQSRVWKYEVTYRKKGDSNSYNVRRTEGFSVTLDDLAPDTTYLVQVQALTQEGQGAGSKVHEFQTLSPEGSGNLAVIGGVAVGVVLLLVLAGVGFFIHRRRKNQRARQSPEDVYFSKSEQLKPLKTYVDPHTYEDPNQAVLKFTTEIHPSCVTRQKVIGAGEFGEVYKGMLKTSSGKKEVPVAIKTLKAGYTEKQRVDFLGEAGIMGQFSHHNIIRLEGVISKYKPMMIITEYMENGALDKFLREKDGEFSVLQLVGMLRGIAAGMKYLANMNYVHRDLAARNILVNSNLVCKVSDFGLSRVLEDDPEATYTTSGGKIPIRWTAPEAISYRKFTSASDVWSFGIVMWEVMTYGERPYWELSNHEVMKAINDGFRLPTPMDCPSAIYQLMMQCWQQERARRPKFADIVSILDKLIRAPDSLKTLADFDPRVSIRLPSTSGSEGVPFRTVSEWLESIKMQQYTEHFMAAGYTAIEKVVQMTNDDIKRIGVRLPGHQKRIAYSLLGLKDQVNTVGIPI
T3 sequence (Q9Y275 134-285): as the sequence (Q9Y275 134-285 limits assumed, species assumed) above

In the case of “SLSCRKEQGKQYLLREWDCDSCASECGSHPHYCAYFCEN (Amino acid sequence of human EphA2-binding peptide a-EphA2 #1) [α-EphA2 #1]”, the “cross reactivity to mEphA2” value in test [1] is recorded as “stronger cross reactivity”. Further, the “binding to human EphA2 expressed on cell surface” value in test [2] is “bound”; in test [2] (listed as α-EphA2 TACI_d2 #1), “specifically bound”.

“SLSCRKEQGKHYLLKEYDCDSCASECGYHPDYCAYFCEN (Amino acid sequence of human EphA2-binding peptide a-EphA2 #3) [α-EphA2 #3]”: the “cross reactivity to mEphA2” value in test [1] is recorded as “cross reactivity to mEphA2 at a level equivalent to wild-type TACI_d2”.

For “SLSCRKEQGKMYLLKEWDCASCASACGNHPHYCAYFCEN (Amino acid sequence of human EphA2-binding peptide a-EphA2 #2) [α-EphA2 #2]”, the “cross reactivity to mEphA2” value in test [1] is “cross reactivity to mEphA2 at a level equivalent to wild-type TACI_d2”. Also, the “binding to human EphA2 expressed on cell surface” value in test [2] is “bound”; in test [2] (listed as α-EphA2 TACI_d2 #2) it was “specifically bound”.

For “wild-type TACI_d2: wild-type C-terminal cysteine-rich domain of TACI, binds APRIL and BAFF”, the “binding to the endogenous ligand hBAFF” value in test [3] is listed as “bind to the endogenous ligand hBAFF”. Further, the “binding activity against APRIL” value in test [4] is recorded as “equivalent to the binding activity of the whole extracellular region (TACI_d1d2)”. Also, the “binding activity against BAFF” value in test [5] is given as “equivalent to the binding activity of the whole extracellular region (TACI_d1d2)”.
